In US20220119534A1 (DRAGONFLY THERAPEUTICS, published 2022):
Each block holds one binder with its values, some of them ahead of it.

Key:
[1] = molecular target: T1, mFc-hNKG2D (human, UniProt P26718 73-216); test: SPR Biacore 8K 37 C; mFc-hNKG2D captured on anti-mFc chip, TriNKET as analyte; steady state fit; after 4 wks 40 C in HST pH 6.0
T1 construct: extracellular domain; Made in house (Dragonfly Tx); the order of tag and ECD follows the name mFc-hNKG2D; also called mFc-tagged human NKG2D; not shown: mouse Fc tag
T1 sequence (looked up): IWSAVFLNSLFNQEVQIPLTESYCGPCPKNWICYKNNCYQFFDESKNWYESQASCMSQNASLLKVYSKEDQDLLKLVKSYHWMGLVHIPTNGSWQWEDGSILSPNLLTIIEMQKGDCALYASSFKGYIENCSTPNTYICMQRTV

[2] = molecular target: T2, Human CD16a V158 (FcγRIIIa V158) (human, UniProt P08637 17-208, biotinylated); test: SPR; after pH 5.0, 40C, 2 wks
T2 construct: Bought recombinant receptor; also called hCD16aV; hFcγRIIIa V158
T2 sequence (P08637 17-208 F176V limits assumed): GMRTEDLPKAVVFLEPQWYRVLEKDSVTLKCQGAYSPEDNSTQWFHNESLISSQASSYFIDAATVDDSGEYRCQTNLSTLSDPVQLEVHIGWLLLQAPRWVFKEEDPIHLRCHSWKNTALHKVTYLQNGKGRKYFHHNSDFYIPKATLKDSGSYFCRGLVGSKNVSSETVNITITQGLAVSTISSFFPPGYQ

[3] = molecular target: T3, Human CD16b (FcγRIIIb) (human, UniProt O75015 17-200, limits assumed, biotinylated); test: SPR 25C, average
T3 construct: Bought recombinant receptor; also called hFcγRIIIb; CD16b (FcγR3b)
T3 sequence (O75015 17-200 limits assumed): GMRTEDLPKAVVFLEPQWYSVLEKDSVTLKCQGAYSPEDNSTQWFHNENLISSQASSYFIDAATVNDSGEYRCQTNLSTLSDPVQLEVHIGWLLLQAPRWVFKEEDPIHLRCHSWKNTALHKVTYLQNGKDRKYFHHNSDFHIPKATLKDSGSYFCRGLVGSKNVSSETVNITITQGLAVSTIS

[4] = molecular target: T4, Human CLEC12A-His (recombinant, K244 WT) (human, UniProt Q5QGZ9 65-265); test: SPR, two-state fit (ka1); after low pH hold
T4 construct: Made in house (Dragonfly Tx); also called hCLEC12A; hCLEC12A-His; not shown: His tag
T4 sequence: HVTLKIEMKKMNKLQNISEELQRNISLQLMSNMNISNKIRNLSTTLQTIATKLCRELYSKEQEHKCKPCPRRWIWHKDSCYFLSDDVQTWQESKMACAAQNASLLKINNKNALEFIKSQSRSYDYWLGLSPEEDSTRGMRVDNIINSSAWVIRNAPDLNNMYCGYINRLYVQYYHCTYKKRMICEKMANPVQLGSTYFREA

[5] = molecular target: T5, human CLEC12A on cells (HL60, PL21, Ba/F3-hCLEC12A) (human, UniProt Q5QGZ9 1-265); test: flow cytometry, HL-60 cells
T5 construct: Endogenous on the AML lines HL60 and PL21; brought into mouse Ba/F3 cells by retroviral transduction; The cell line stands under assay; also called CLL-1
T5 sequence: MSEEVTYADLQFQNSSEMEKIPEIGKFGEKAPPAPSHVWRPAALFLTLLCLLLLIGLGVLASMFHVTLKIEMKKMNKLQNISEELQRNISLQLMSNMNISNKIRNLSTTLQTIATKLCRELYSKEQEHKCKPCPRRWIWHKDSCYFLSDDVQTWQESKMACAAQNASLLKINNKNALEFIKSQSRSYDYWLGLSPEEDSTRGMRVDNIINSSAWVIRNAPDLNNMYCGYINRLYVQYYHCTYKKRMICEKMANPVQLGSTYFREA

Kd [1]: 776 nM
B1: F3'-1602 TriNKET (bispecific antibody, human IgG1, kappa)
chain: QLQLQESGPGLVKPSETLSLTCTVSGFSLTNYGLHWIRQPPGKCLEWIGVIWSGGKTDYNPSLKSRVTISKDTSKNQFSLKLSSVQAADTAVYYCAKYDYDDSLDYWGQGTLVTVSSGGGGSGGGGSGGGGSGGGGSDIQMTQSPSSLSASVGDRVTITCHASQNINFWLSWYQQKPGKAPKLLIYEASNLHTGVPSRFSGSGSGTRFTLTISSLQPEDIATYYCQQSHSYPLTFGCGTKLEIKGSDKTHTCPPCPAPELLGGPSVFLFPPKPKDTLMISRTPEVTCVVVDVSHEDPEVKFNWYVDGVEVHNAKTKPREEQYNSTYRVVSVLTVLHQDWLNGKEYKCKVSNKALPAPIEKTISKAKGQPREPRVYTLPPCRDELTKNQVSLTCLVKGFYPSDIAVEWESNGQPENNYKTTPPVLVSDGSFTLYSKLTVDKSRWQQGNVFSCSVMHEALHNHYTQKSLSLSPG
heavy: EVQLVESGGGLVKPGGSLRLSCAASGFTFSSYSMNWVRQAPGKGLEWVSSISSSSSYIYYADSVKGRFTISRDNAKNSLYLQMNSLRAEDTAVYYCARGAPIGAAAGWFDPWGQGTLVTVSSASTKGPSVFPLAPSSKSTSGGTAALGCLVKDYFPEPVTVSWNSGALTSGVHTFPAVLQSSGLYSLSSVVTVPSSSLGTQTYICNVNHKPSNTKVDKKVEPKSCDKTHTCPPCPAPELLGGPSVFLFPPKPKDTLMISRTPEVTCVVVDVSHEDPEVKFNWYVDGVEVHNAKTKPREEQYNSTYRVVSVLTVLHQDWLNGKEYKCKVSNKALPAPIEKTISKAKGQPREPQVCTLPPSRDELTENQVSLTCLVKGFYPSDIAVEWESNGQPENNYKTTPPVLDSDGSFFLYSWLTVDKSRWQQGNVFSCSVMHEALHNHYTQKSLSLSPG
light: DIQMTQSPSSVSASVGDRVTITCRASQGISSWLAWYQQKPGKAPKLLIYAASSLQSGVPSRFSGSGSGTDFTLTISSLQPEDFATYYCQQGVSFPRTFGGGTKVEIKRTVAAPSVFIFPPSDEQLKSGTASVVCLLNNFYPREAKVQWKVDNALQSGNSQESVTEQDSKDSTYSLSSTLTLSKADYEKHKVYACEVTHQGLSSPVTKSFNRGEC
notes: Trispecific F3' format: CLEC12A scFv-Fc paired with NKG2D Fab-Fc; Stressed and control samples of the stability studies are the same molecule; also called AB0237

Kd [2]: 383 nM
koff [2]: 0.0289 s⁻¹
kon [2]: 75400 M⁻¹ s⁻¹
Kd [3]: 8900 nM
kon [4]: 1.11e+07 M⁻¹ s⁻¹
B2: AB0089 TriNKET (bispecific antibody, human IgG1, kappa)
chain: QLQLQESGPGLVKPSETLSLTCTVSGFSLTNYGLHWIRQPPGKCLEWIGVIWVGGATDYNPSLKSRVTISVDTSKNQFSLKLSSVQAADTAVYYCAKGDYGDTLDYWGQGTLVTVSSGGGGSGGGGSGGGGSGGGGSDIQMTQSPSSLSASVGDRVTITCHASQNINFWLSWYQQKPGKAPKLLIYEASNLHTGVPSRFSGSGSGTDFTLTISSLQPEDFATYYCQQSHSYPLTFGCGTKLEIKGSDKTHTCPPCPAPELLGGPSVFLFPPKPKDTLMISRTPEVTCVVVDVSHEDPEVKFNWYVDGVEVHNAKTKPREEQYNSTYRVVSVLTVLHQDWLNGKEYKCKVSNKALPAPIEKTISKAKGQPREPRVYTLPPCRDELTKNQVSLTCLVKGFYPSDIAVEWESNGQPENNYKTTPPVLVSDGSFTLYSKLTVDKSRWQQGNVFSCSVMHEALHNHYTQKSLSLSPG
heavy: EVQLVESGGGLVKPGGSLRLSCAASGFTFSSYSMNWVRQAPGKGLEWVSSISSSSSYIYYADSVKGRFTISRDNAKNSLYLQMNSLRAEDTAVYYCARGAPIGAAAGWFDPWGQGTLVTVSSASTKGPSVFPLAPSSKSTSGGTAALGCLVKDYFPEPVTVSWNSGALTSGVHTFPAVLQSSGLYSLSSVVTVPSSSLGTQTYICNVNHKPSNTKVDKKVEPKSCDKTHTCPPCPAPELLGGPSVFLFPPKPKDTLMISRTPEVTCVVVDVSHEDPEVKFNWYVDGVEVHNAKTKPREEQYNSTYRVVSVLTVLHQDWLNGKEYKCKVSNKALPAPIEKTISKAKGQPREPQVCTLPPSRDELTENQVSLTCLVKGFYPSDIAVEWESNGQPENNYKTTPPVLDSDGSFFLYSWLTVDKSRWQQGNVFSCSVMHEALHNHYTQKSLSLSPG
light: DIQMTQSPSSVSASVGDRVTITCRASQGISSWLAWYQQKPGKAPKLLIYAASSLQSGVPSRFSGSGSGTDFTLTISSLQPEDFATYYCQQGVSFPRTFGGGTKVEIKRTVAAPSVFIFPPSDEQLKSGTASVVCLLNNFYPREAKVQWKVDNALQSGNSQESVTEQDSKDSTYSLSSTLTLSKADYEKHKVYACEVTHQGLSSPVTKSFNRGEC
notes: F3' format heterodimer of three chains; human IgG1 Fc with EW-RVT and Y349C/S354C mutations; also called AB0089 Lot AB0089-002; CLEC12A TriNKET AB0089

EC50 [5]: 0.6 nM
B3: AB0192 TriNKET (other)
chain: EVQLVESGGGVVQPGGSLRLSCAASGFTFNAFGMHWVRQAPGKCLEWVAFISSGSTSIYYANTVKGRFTISRDNSKNTLYLQMNSLRAEDTAVYYCARDGYPTGGAMDYWGQGTSVTVSSGGGGSGGGGSGGGGSGGGGSDIQMTQSPSSLSASVGDRVTITCKASQDIYNYLSWFQQKPGKAPKPLIYRANILVSGVPSRFSGSGSGQDYTFTISSLQPEDIATYYCLQFDAFPFTFGCGTKLEIKGSDKTHTCPPCPAPELLGGPSVFLFPPKPKDTLMISRTPEVTCVVVDVSHEDPEVKFNWYVDGVEVHNAKTKPREEQYNSTYRVVSVLTVLHQDWLNGKEYKCKVSNKALPAPIEKTISKAKGQPREPRVYTLPPCRDELTKNQVSLTCLVKGFYPSDIAVEWESNGQPENNYKTTPPVLVSDGSFTLYSKLTVDKSRWQQGNVFSCSVMHEALHNHYTQKSLSLSPG
heavy: EVQLVESGGGLVKPGGSLRLSCAASGFTFSSYSMNWVRQAPGKGLEWVSSISSSSSYIYYADSVKGRFTISRDNAKNSLYLQMNSLRAEDTAVYYCARGAPIGAAAGWFDPWGQGTLVTVSSASTKGPSVFPLAPSSKSTSGGTAALGCLVKDYFPEPVTVSWNSGALTSGVHTFPAVLQSSGLYSLSSVVTVPSSSLGTQTYICNVNHKPSNTKVDKKVEPKSCDKTHTCPPCPAPELLGGPSVFLFPPKPKDTLMISRTPEVTCVVVDVSHEDPEVKFNWYVDGVEVHNAKTKPREEQYNSTYRVVSVLTVLHQDWLNGKEYKCKVSNKALPAPIEKTISKAKGQPREPQVCTLPPSRDELTENQVSLTCLVKGFYPSDIAVEWESNGQPENNYKTTPPVLDSDGSFFLYSWLTVDKSRWQQGNVFSCSVMHEALHNHYTQKSLSLSPG
light: DIQMTQSPSSVSASVGDRVTITCRASQGISSWLAWYQQKPGKAPKLLIYAASSLQSGVPSRFSGSGSGTDFTLTISSLQPEDFATYYCQQGVSFPRTFGGGTKVEIKRTVAAPSVFIFPPSDEQLKSGTASVVCLLNNFYPREAKVQWKVDNALQSGNSQESVTEQDSKDSTYSLSSTLTLSKADYEKHKVYACEVTHQGLSSPVTKSFNRGEC
notes: the condition stands under assay; also called AB0192 Lot AB0192-005
